The values that follow are results of earlier work, collected in publication PMC3781210.

Where two headings read alike, the source gives them in different places.

The target of data set [1] is Beclin 1 (Homo sapiens) (UniProt Q14457).
For data set [2] the target is unchanged. This is another data set of the same source.
The target is the same in data set [3]. The source holds these as a separate data set.

Chain of UniProt Q14457 (Q14457 150-450): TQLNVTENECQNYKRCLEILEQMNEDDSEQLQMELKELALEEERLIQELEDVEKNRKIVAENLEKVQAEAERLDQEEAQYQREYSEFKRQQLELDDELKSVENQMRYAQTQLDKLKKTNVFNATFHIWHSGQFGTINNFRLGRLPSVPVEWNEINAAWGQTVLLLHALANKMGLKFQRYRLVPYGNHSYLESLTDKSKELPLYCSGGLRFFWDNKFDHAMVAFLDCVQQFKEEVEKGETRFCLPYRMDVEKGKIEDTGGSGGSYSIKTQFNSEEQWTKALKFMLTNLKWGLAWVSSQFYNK

For Bcl-2 (from UniProt P10415), the Kd in the data set with Beclin 1 (Homo sapiens) [1] was 1700 nM.
Bcl-XL (from UniProt Q07817): the Kd with Beclin 1 (Homo sapiens) [2] was 1700 nM.
Take vBcl-2 (from UniProt P89884): in the data set with Beclin 1 (Homo sapiens) [3], the Kd is 40 nM.
